In patent US20210171601A1 (Memorial Sloan Kettering, published 2021):
Where no end group is shown, it is not given here.

B1: IL-3 zipperkine (IL-3 cytokine with C-terminal FLAG-tag and RR12EE345L leucine zipper) (ligand)
chain: ASISGRDTHRLTRTLNCSSIVKEIIGKLPEPELKTDDEGPSLRNKSFRRVNLSKFVESQGEVDPEDRYVIKSNLQKLNCCLPTSANDSALPGVFIRDLDDFRKKLRFYMVHLNDLETVLTSRPPQPASGSVSPNRGTVECGSGDYKDDDDKLEIRAAFLRQRNTALRTEVAELEQEVQRLENEVSQYETRYGPLGGGK
B2: RR12EE345L leucine zipper with a linked affinity tag (peptide, not shown: small tags and cut ends)
chain: LEIRAAFLRQRNTALRTEVAELEQEVQRLENEVSQYETRYGPLGGGK
modifications: not fully specified (N-terminus)
notes: Secreted tagged zipper of the two-vector sorting system

Key:
[1] = target: T1, leucine zipper-based CAR (ZipR-CAR), e.g. EE12RR345L:CD28zeta; assay: co-expression in T cells (FIG. 8)
T1 construct: Used where the text speaks of 'the ZipR-CAR' without naming the spacer; Expressed on T cells; also called leucine zipper receptor-based CAR; EE-CAR

[2] = target: T2, membrane-bound leucine zipper (EE12RR345L); assay: both co-transduced into the same cell; affinity tag detected on the cell surface by flow cytometry
T2 construct: Expressed on the surface of the transduced cell; not shown: spacer, transmembrane and any intracellular part of the construct of this experiment are not specified

Binder	binding result [1]	binding result [2]
B1	binds	
B2		binds
